Laboratory results taken from patent publication US20120301930A1 (YEDA RESEARCH AND DEVELOPMENT, published 2012).

T1: f-5A chimera (catalytic module of T. fusca family-5 endoglucanase Cel5A fused to a dockerin from Ruminococcus …)
T1 construct: Recombinant chimera expressed in E. coli; all enzyme constructs were designed to contain a His-tag; also called variant Cel5A
T1 chain: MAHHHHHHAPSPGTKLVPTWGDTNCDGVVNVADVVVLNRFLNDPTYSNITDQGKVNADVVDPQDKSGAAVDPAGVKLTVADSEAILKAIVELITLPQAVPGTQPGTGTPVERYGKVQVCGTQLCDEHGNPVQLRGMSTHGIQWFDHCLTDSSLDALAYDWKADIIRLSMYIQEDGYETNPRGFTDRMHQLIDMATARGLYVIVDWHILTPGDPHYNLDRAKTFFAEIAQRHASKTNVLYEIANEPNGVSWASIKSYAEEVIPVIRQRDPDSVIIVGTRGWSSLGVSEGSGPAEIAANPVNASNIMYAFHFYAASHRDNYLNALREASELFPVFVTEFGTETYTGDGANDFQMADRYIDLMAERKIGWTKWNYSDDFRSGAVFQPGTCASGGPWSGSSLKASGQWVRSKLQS

T2: b-48A chimera (catalytic module of T. fusca exoglucanase Cel48A ligated with a dockerin from the Bacteroides …)
T2 construct: Recombinant chimera; all enzyme constructs were designed to contain a His-tag; also called variant Cel48A
T2 chain: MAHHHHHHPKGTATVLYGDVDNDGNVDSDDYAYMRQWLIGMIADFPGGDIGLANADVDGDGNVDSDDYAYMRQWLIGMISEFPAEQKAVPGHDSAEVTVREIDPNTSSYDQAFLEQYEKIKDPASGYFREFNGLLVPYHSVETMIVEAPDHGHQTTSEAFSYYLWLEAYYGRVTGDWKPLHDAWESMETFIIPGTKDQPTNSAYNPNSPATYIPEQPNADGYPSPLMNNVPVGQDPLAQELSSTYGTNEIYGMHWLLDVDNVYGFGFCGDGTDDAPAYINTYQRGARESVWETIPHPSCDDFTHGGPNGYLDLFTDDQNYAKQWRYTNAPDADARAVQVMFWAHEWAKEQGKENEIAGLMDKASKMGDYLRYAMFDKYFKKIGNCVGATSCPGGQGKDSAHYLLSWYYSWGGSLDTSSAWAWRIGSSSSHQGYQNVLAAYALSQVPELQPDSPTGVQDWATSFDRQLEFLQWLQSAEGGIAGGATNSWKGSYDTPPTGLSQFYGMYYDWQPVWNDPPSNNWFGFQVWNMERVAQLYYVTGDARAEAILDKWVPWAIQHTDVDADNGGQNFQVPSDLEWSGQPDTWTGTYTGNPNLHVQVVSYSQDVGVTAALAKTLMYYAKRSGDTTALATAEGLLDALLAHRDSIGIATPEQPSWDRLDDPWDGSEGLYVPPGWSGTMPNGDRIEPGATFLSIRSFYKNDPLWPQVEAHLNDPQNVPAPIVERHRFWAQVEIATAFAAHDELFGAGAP

T3: Scaf-T single-cohesin scaffoldin (CBM with C. thermocellum cohesin) (Acetivibrio thermocellus (strain ATCC …, UniProt Q06851 361-706))
T3 construct: Individual single-cohesin scaffoldin; also called pScaf.T
T3 sequence: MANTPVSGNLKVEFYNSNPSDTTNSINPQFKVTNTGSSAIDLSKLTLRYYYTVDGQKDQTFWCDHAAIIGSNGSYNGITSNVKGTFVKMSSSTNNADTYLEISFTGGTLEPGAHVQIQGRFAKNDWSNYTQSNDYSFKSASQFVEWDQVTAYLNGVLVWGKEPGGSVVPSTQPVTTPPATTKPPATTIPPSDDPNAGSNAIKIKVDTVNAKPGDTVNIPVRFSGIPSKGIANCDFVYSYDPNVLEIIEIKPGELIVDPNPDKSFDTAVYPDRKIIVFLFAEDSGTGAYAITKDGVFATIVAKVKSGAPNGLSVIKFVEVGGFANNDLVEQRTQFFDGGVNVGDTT

B1: Scaf-A single-cohesin scaffoldin (CBM with A. cellulolyticus cohesin) (other)
chain: MANTPVSGNLKVEFYNSNPSDTTNSINPQFKVTNTGSSAIDLSKLTLRYYYTVDGQKDQTFWCDHAAIIGSNGSYNGITSNVKGTFVKMSSSTNNADTYLEISFTGGTLEPGAHVQIQGRFAKNDWSNYTQSNDYSFKSASQFVEWDQVTAYLNGVLVWGKEPGGSVVPSTQPVTTPPATTKPPATTIPPSDDPNAGSDLQVDIGSTSGKAGSVVSVPITFTNVPKSGIYALSFRTNFDPQKVTVASIDAGSLIENASDFTTYYNNENGFASMTFEAPVDRARIIDSDGVFATINFKVSDSAKVGELYNITTNSAYTSFYYSGTDEIKNVVYNDGKIEVIAS
notes: Individual single-cohesin scaffoldin; also called pScaf-A
B2: Scaf-ATF chimeric scaffoldin (cohesins A, T and F with the cellulose-binding CBM) (other)
chain: MDLQVDIGSTSGKAGSVVSVPITFTNVPKSGIYALSFRTNFDPQKVTVASIDAGSLIENASDFTTYYNNENGFASMTFEAPVDRARIIDSDGVFATINFKVSDSAKVGELYNITTNSAYTSFYYSGTDEIKNVVYNDGKIEVIASVPTNTPTNTPANTPVSGNLKVEFYNSNPSDTTNSINPQFKVTNTGSSAIDLSKLTLRYYYTVDGQKDQTFWCDHAAIIGSNGSYNGITSNVKGTFVKMSSSTNNADTYLEISFTGGTLEPGAHVQIQGRFAKNDWSNYTQSNDYSFKSASQFVEWDQVTAYLNGVLVWGKEPGGSVVPSTQPVTTPPATTKPPATTIPPSDDPNAIKIKVDTVNAKPGDTVNIPVRFSGIPSKGIANCDFVYSYDPNVLEIIEIKPGELIVDPNPDKSFDTAVYPDRKIIVFLFAEDSGTGAYAITKDGVFATIVAKVKSGAPNGLSVIKFVEVGGFANNDLVEQRTQFFDGGVNVGDIGSAGGLSAVQPNVSLGEVLDVSANRTAADGTVEWLIPTVTAAPGQTVTMPVVVKSSSLAVAGAQFKIQAATGVSYSSKTDGDAYGSGIVYNNSKYAFGQGAGRGIVAADDSVVLTLAYTVPADCAEGTYDVKWSDAFVSDTDGQNITSKVTLTDGAIIVHHHHHH
B3: Scaf AT chimeric scaffoldin (A. cellulolyticus cohesin 3, cellulose-binding CBM, cohesin 3 from the C. thermocellum CipA scaffoldin) (other)
chain: MDLQVDIGSTSGKAGSVVSVPITFTNVPKSGIYALSFRTNFDPQKVTVASIDAGSLIENASDFTTYYNNENGFASMTFEAPVDRARIIDSDGVFATINFKVSDSAKVGELYNITTNSAYTSFYYSGTDEIKNVVYNDGKIEVIASVPTNTPTNTPANTPVSGNLKVEFYNSNPSDTTNSINPQFKVTNTGSSAIDLSKLTLRYYYTVDGQKDQTFWCDHAAIIGSNGSYNGITSNVKGTFVKMSSSTNNADTYLEISFTGGTLEPGAHVQIQGRFAKNDWSNYTQSNDYSFKSASQFVEWDQVTAYLNGVLVWGKEPGGSVVPSTQPVTTPPATTKPPATTIPPSDDPNAIKIKVDTVNAKPGDTVNIPVRFSGIPSKGIANCDFVYSYDPNVLEIIEIKPGELIVDPNPDKSFDTAVYPDRKIIVFLFAEDSGTGAYAITKDGVFATIVAKVKSGAPNGLSVIKFVEVGGFANNDLVEQRTQFFDGGVNVGDIHHHHHH
B4: Scaf-B single-cohesin scaffoldin (CBM with B. cellulosolvens cohesin) (other)
chain: MANTPVSGNLKVEFYNSNPSDTTNSINPQFKVTNTGSSAIDLSKLTLRYYYTVDGQKDQTFWCDHAAIIGSNGSYNGITSNVKGTFVKMSSSTNNADTYLEISFTGGTLEPGAHVQIQGRFAKNDWSNYTQSNDYSFKSASQFVEWDQVTAYLNGVLVWGKEPGGSVVPSTQPVTTPPATTKPPATTIPPSDDPNAGSGKSSPGNKMKIQIGDVKANQGDTVIVPITFNEVPVMGVNNCNFTLAYDKNIMEFISADAGDIVTLPMANYSYNMPSDGLVKFLYNDQAQGAMSIKEDGTFANVKFKIKQSAAFGKYSVGIKAIGSISALSNSKLIPIESIFKDGSITVTN
notes: Individual single-cohesin scaffoldin
B5: Scaf-BF chimeric scaffoldin (cohesin from B. cellulosolvens ScaB, CBM3a from C. thermocellum, cohesin 1 from R. flavefaciens scaffoldin B) (other)
chain: MAGKSSPGNKMKIQIGDVKANQGDTVIVPITFNEVPVMGVNNCNFTLAYDKNIMEFISADAGDIVTLPMANYSYNMPSDGLVKFLYNDQAQGAMSIKEDGTFANVKFKIKQSAAFGKYSVGIKAIGSISALSNSKLIPIESIFKDGSITVTKVPTNTPTNTPANTPVSGNLKVEFYNSNPSDTTNSINPQFKVTNTGSSAIDLSKLTLRYYYTVDGQKDQTFWCDHAAIIGSNGSYNGITSNVKGTFVKMSSSTNNADTYLEISFTGGTLEPGAHVQIQGRFAKNDWSNYTQSNDYSFKSASQFVEWDQVTAYLNGVLVWGKEPGGSVVPSTQPVTTPPATTKPPATTIPPSEDPAGGLSAVQPNVSLGEVLDVSANRTAADGTVEWLIPTVTAAPGQTVTMPVVVKSSSLAVAGAQFKIQAATGVSYSSKTDGDAYGSGIVYNNSKYAFGQGAGRGIVAADDSVVLTLAYTVPADCAEGTYDVKWSDAFVSDTDGQNITSKVTLTDGAIIVHHHHHH
B6: 10B-t chimera (catalytic module of T. fusca Xyn10B attached directly to dockerin S of Cel48S from Clostridium thermocellum) (enzyme)
chain: MASHHHHHHGPVHDHHPAPHSNAKSERLRWAAPDGFYIGSAVAGGGHHLEQDYPDPFTHDGKYRSILAQQFSSVSPENQMKWEYIHPEPDRYDFAMADKIVDFAERNDQKVRGHTLLWHSQNPEWLEEGDYSPEELREILRDHITTVVGRYAGRIHQWDVANEIFDEQGNLRTQENIWIRELGPGIIADAFRWAHEADPNAELFFNDYNVEGINPKSDAYYELIQELLDDGVPVHGFSVQGHLSTRYGFPGDLEQNLRRFDELGLATAITELDVRMDLPASGKPTPKQLEQQADYYQQALEACLAVEGCDSFTIWGFTDKYSWVPVFFPDEGAATIMTEKYERKPAFFALQQTLREARCADSPKPGPGKPKPGKGPKHDHCTSTYKVPGTPSTKLYGDVNDDGKVNSTDAVALKRYVLRSGISINTDNADLNEDGRVNSTDLGILKRYILKEIDTLPYKN
notes: Recombinant chimera expressed in E. coli, purified on a Ni column (His-tag); also called variant Xyn10B

Experiments:
[1] = biological target: T4, 11A-a chimera (catalytic module of T. fusca Xyn11A attached directly to dockerin B from Acetivibrio …); test: affinity-based ELISA
T4 construct: Recombinant chimera expressed in E. coli, purified on a Ni column (His-tag)

[2] = biological target: T5, 11A-XBM-a chimera (catalytic module of T. fusca Xyn11A together with its adjacent XBM attached to dockerin B …); test: affinity-based ELISA
T5 construct: Recombinant chimera expressed in E. coli, purified on a Ni column (His-tag); also called variant Xyn11A

[3] = biological target: B6; test: affinity-based ELISA; complex formation also by non-denaturing PAGE
[4] = biological target: T1, f-5A chimera (catalytic module of T. …); test: as above
[5] = biological target: T4, 11A-a chimera (catalytic module of T. …); test: as above
[6] = biological target: T5, 11A-XBM-a chimera (catalytic module of …); test: as above
[7] = biological target: T2, b-48A chimera (catalytic module of T. …); test: affinity-based ELISA
[8] = biological target: T2, b-48A chimera (catalytic module of T. …); test: affinity-based ELISA; complex formation also by non-denaturing PAGE
[9] = biological target: T3, Scaf-T single-cohesin scaffoldin (CBM …); test: affinity-based ELISA

## B1
[1]
  binding result: binds
[2]
  binding result: binds

## B2
[3]
  binding result: binds
[4]
  binding result: binds
[5]
  binding result: binds
[6]
  binding result: binds

## B3
[3]
  binding result: binds
[5]
  binding result: binds
[6]
  binding result: binds

## B4
[7]
  binding result: binds

## B5
[4]
  binding result: binds
[8]
  binding result: binds

## B6
[9]
  binding result: binds
